Positions of bridges follow the written chain, without caps; N, C: chain ends. Non-standard residues stand in square brackets, D forms with d. Residues, ends and D or L forms follow the SMILES beside them. No end group written: not given here. *: point of attachment. Hydrocinnamoyl = O=C(CCc1ccccc1)*; Pyrazinecarbonyl = O=C(c1cnccn1)*; dNMeR = CN[C@H](CCCNC(=N)N)C(=O)O
Assay: FIGURE 31 (1/2)
Experimental: Table printed on a drawing sheet, FIGURE 31 (1/2)
Peptide to internal standard peak area ratios were used calculate percentage remaining peptide at 60 minutes and 120 minutes. Peptides are identified by GPR number (GPR#) and SEQ ID NO.
First reader's note: First of two sheets of FIGURE 31; the table continues on sheet 2/2, and the meaning of the asterisks is not printed on this sheet.

Compound	% Remaining at 60 and 120 minutes | 60 [%]	% Remaining at 60 and 120 minutes | 120 [%]
CC(C)C[C@@H]1NC(=O)[C@H](C(C)C)NC(=O)[C@H](CC(N)=O)NC(=O)[C@H](CO)NC(=O)[C@H](CO)NC(=O)[C@H](CC(=O)O)NC(=O)[C@H](CC(=O)O)NC(=O)[C@H](Cc2ccccc2)NC(=O)[C@H](Cc2ccc(O)cc2)NC(=O)[C@@H](NC(=O)CCc2ccccc2)CSSC[C@@H](C(=O)N[C@@H](CCCCN)C(=O)N[C@@H](CCCCN)C(=O)N[C@@H](Cc2ccc(O)cc2)C(=O)N[C@@H](CCCNC(=N)N)C(=O)N[C@@H](CO)C(=O)O)NC1=O [SEQ ID NO:31, [N-terminal: Phenyl-CH2-CH2-CO-]Cys-Tyr-Phe-Asp-Asp-Ser-Ser-Asn-Val-Leu-Cys-Lys-Lys-Tyr-Arg-Ser] (Hydrocinnamoyl-CYFDDSSNVLCKKYRS-OH; disulfide 1-11)	26.6	11.8
CC(C)C[C@@H]1NC(=O)[C@H](C(C)C)NC(=O)[C@H](CC(N)=O)NC(=O)[C@H](CO)NC(=O)[C@H](CO)NC(=O)[C@H](CC(=O)O)NC(=O)[C@H](CC(=O)O)NC(=O)[C@H](Cc2ccccc2)NC(=O)[C@H](Cc2ccc(O)cc2)NC(=O)[C@@H](NC(=O)CCc2ccccc2)CSSC[C@@H](C(=O)N[C@@H](CCCCN)C(=O)N[C@@H](CCCCN)C(=O)N[C@H](Cc2ccc(O)cc2)C(=O)N[C@@H](CCCNC(=N)N)C(=O)N[C@@H](CO)C(=O)O)NC1=O [SEQ ID NO:32, [N-terminal: Phenyl-CH2-CH2-CO-]Cys-Tyr-Phe-Asp-Asp-Ser-Ser-Asn-Val-Leu-Cys-Lys-Lys-(D)Tyr-Arg-Ser] (Hydrocinnamoyl-CYFDDSSNVLCKK[dY]RS-OH; disulfide 1-11)	82.0	91.0
CYFDDSSNVKCKK[dA]RS (cysteine pairing not given here) [SEQ ID NO:28]	75.3	90.2
Cys-Tyr-Phe-Asp-Asp-Asn-Ser-Asn-Val-Leu-Cys-Arg-Lys-Tyr-(Me)(D)Arg-Ser (CYFDDNSNVLCRKY[dNMeR]S-OH; disulfide 1-11 (inferred)) [SEQ ID NO:38]	90.4	84.2
Cys-Tyr-Phe-Asp-Asp-Ser-Ser-Asn-Ala-Leu-Cys-Lys-Lys-Tyr-(Me)(D)Arg-Ser (CYFDDSSNALCKKY[dNMeR]S-OH; disulfide 1-11 (inferred)) [SEQ ID NO:42]	100.0	94.0
Cys-Tyr-Phe-Asp-Asp-Ser-Ser-Asn-Thr-Leu-Cys-Lys-Lys-Tyr-(Me)(D)Arg-Ser (CYFDDSSNTLCKKY[dNMeR]S-OH; disulfide 1-11 (inferred)) [SEQ ID NO:40]	106.0	99.2
Cys-Tyr-Phe-Nal-Asp-Ser-Ser-Asn-Val-Leu-Cys-Lys-Lys-(D)Tyr-Arg-Ser (CYF[Nal]DSSNVLCKK[dY]RS-OH; disulfide 1-11 (inferred)) [SEQ ID NO:48]	93.33	97.49
Cys-Tyr-Phe-Nal-Asp-Ser-Ser-Asn-Val-Leu-Cys-Lys-Lys-Tyr-Arg-Ser (CYF[Nal]DSSNVLCKKYRS-OH; disulfide 1-11 (inferred)) [SEQ ID NO:47]	9.0	8.2
Cys-Tyr-Tyr-Phe-Ser-Ser-Ser-Phe-Val-Leu-Cys-Lys-Arg-Tyr-(Me)(D)Arg-Ser (CYYFSSSFVLCKRY[dNMeR]S-OH; disulfide 1-11 (inferred)) [SEQ ID NO:44]	74.3	57.5
[N-terminal: Pirazinyl-CO-]Cys-Tyr-Phe-Asp-Asp-Ser-Ser-Asn-Val-Leu-Cys-Lys-Lys-(D)Tyr-Arg-Ser (Pyrazinecarbonyl-CYFDDSSNVLCKK[dY]RS-OH; disulfide 1-11 (inferred)) [SEQ ID NO:34]	66.2	78.7

Source: US20160137714A1 (Thrasos Innovation, Inc., priority 2014, published 2016)
